# Assays:
# HLA-B*15:01 = target: T1, HLA-B*15:01 (human); assay: refolding of HLA with synthetic peptide, size-exclusion chromatography (FIG. 4B)
# T1 construct: the method paragraph describes expression only for HLA-B*39:01
# HLA-B*57:01 = target: T2, HLA-B*57:01 (human); assay: refolding of HLA with synthetic peptide, size-exclusion chromatography (FIG. 4A)
# T2 construct: the method paragraph describes expression only for HLA-B*39:01; also called HLA-B*057:01
Binder,binding result (HLA-B*15:01),binding result (HLA-B*57:01)
"TKGPSVFPL (Synthetic peptide (Genscript) derived from infliximab; also called 3901_tkg) [SEQ ID NO: 2 (TKGPSVFPL), synthetic peptide derived from the infliximab heavy chain]",no binding,no binding
"THQGLSSPV (Synthetic peptide (Genscript) derived from infliximab; also called 3901_thq) [SEQ ID NO: 1 (THQGLSSPV), synthetic peptide derived from the infliximab light chain]",no binding,no binding

# — US20260007714A1 (TEN PEAKS, published 2026)
